Earlier results as cited in patent publication US20160114039A1, “TREATMENT OF POLYPOIDAL CHOROIDAL VASCULOPATHY” (BAYER HEALTHCARE LLC, priority 2013, published 2016).

System: symptomatic PCV
Conditions: sixty-one Asian patients with symptomatic PCV; primary end point assessed at month 6

B1: ranibizumab (antibody, chains of the INN, looked up, V domains shown)
VH: EVQLVESGGGLVQPGGSLRLSCAASGYDFTHYGMNWVRQAPGKGLEWVGWINTYTGEPTYAADFKRRFTFSLDTSKSTAYLQMNSLRAEDTAVYYCAKYPYYYGTSHWYFDVWGQGTLVTVSS
VL: DIQLTQSPSSLSASVGDRVTITCSASQDISNYLNWYQQKPGKAPKVLIYFTSSLHSGVPSRFSGSGSGTDFTLTISSLQPEDFATYYCQQYSTVPWTFGQGTKVEIK
modifications: Fab
notes: anti-VEGF agent ranibizumab (Lucentis)
In the case of B1, the complete polyp regression is given as 28.6%.
